Columns and labels:
[1] = molecular target: ligands on KG1a cells (human (endogenous in KG1a)); assay: flow cytometry on cells; KG1a cells stained with 10 ug/ml E-selectin protein in HBSS with 5% FBS and 2 mM CaCl2, 4 °C, 20 min; detected by Strep-tag II mAb and PE anti-mouse IgG1
[2] = molecular target: CD44/HCELL (hematopoietic cell E- and/or L-selectin ligand) (human (endogenous in KG1a)) (UniProt P16070); assay: SPR; Biacore T-100, CM5 chip, 25 °C; CD44/HCELL captured from KG1a lysate by immobilised Hermes-3; E-selectin proteins injected in sequential concentrations at 20 ul/min, 90 s each; running buffer 50 mM Tris pH 8.0, 1% Triton X-100, 50 mM NaCl, 1 mM CaCl2; isotype control subtracted; kon calculated from KD and koff
[3] = molecular target: E-S6-IgG (mouse E-selectin extracellular region fused to the Fc region of human IgG1, from silkworm) (mouse | human) (UniProt Q00690); assay: native gel or EMSA; purified E-selectin proteins in native PAGE sample buffer on a 10% TBE gel, Tris-glycine buffer, Coomassie stain

CD44/HCELL (hematopoietic cell E- and/or L-selectin ligand) (human (endogenous in KG1a)), sequence (P16070 other isoform, or with tags, fused parts or gaps): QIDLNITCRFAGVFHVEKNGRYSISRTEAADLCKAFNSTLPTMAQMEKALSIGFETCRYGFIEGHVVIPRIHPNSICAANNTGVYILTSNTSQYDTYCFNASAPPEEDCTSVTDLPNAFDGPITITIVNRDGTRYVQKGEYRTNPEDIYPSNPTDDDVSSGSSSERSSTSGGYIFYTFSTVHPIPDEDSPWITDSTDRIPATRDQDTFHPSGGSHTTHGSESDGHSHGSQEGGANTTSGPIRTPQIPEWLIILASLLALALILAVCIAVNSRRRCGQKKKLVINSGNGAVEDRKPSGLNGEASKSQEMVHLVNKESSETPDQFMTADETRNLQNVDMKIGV

fluorescence signal (geometric mean) [1]	fluorescence signal, fold lower than E-S6 [1] [fold]	percent of the live KG1a population bound [1] [%]	Kd [2] [µM]	kon [2] [M⁻¹ s⁻¹]	Substance	stoichiometry N [3]
1690	2	84	2.5	80	E-S2-A28H (E-S2 with the A28H mutation in the lectin domain) (domain or fragment)	
	3	76	5.68	30	E-S2 (truncated mouse E-selectin with only the first two SCR domains) (domain or fragment)	
		43	17.2	4	E-S0 (mouse E-selectin lectin and EGF domains, no SCR domains) (domain or fragment)	

Substance	fluorescence signal (geometric mean) [1]	fluorescence signal, fold lower than E-S6 [1] [fold]	percent of the live KG1a population bound [1] [%]	Kd [2] [µM]	kon [2] [M⁻¹ s⁻¹]	stoichiometry N [3]
E-S6-IgG (mouse E-selectin extracellular region fused to the Fc region of human IgG1, from silkworm) (from UniProt Q00690 22-557) (Fc fusion)			96	0.17	950	2

From article PMC7076219
